In patent US11142752B2, “Pullulanase mutant” (Jiangnan University, priority 2018, dated 2021):
Positions count from the first letter of the chain named. Names may count otherwise.

Columns and labels:
Assay in all cases: Inhibitory effect of cyclodextrin on pullulanase enzyme activity (DNS method, pullulan substrate)
Format in all cases: biochemical
[1] = tested on: pullulanase derived from Bacillus subtilis str. 168; conditions: Bacillus subtilis str. 168 pullulanase, 1% pullulan pH 6.0, 40° C., 30 min; for Reduction rate of specific enzyme activity in existence of α-CD: inhibitor α-CD (0.1 mL of 10 mM cyclodextrin); for Reduction rate of specific enzyme activity in existence of β-CD: inhibitor β-CD (0.1 mL of 10 mM cyclodextrin); for Reduction rate of specific enzyme activity in existence of γ-CD: inhibitor γ-CD (0.1 mL of 10 mM cyclodextrin)
Source text: (§1) 2. Measurement of Enzyme Activity of the Pullulanase:
(§2) A 3,5-dinitrosalicylic acid (DNS) method is adopted. The pullulanase catalyzes the hydrolysis of pullulan to produce reducing sugar under certain conditions, 3,5-dinitrosalicylic acid and the reducing sugar are reduced under thermal conditions to produce a brown-red amino complex, the color depth is directly proportional to the amount of the reducing sugar within a certain range, and the measurement can be performed at the wavelength of 540 nm so as to calculate the enzyme activity. Enzyme activity unit definition: the amount of the enzyme that catalyzes the production of the reducing sugar equivalent to 1 μmol of glucose reducing power per minute is defined as one activity unit.
(§3) 3. Measurement of the Enzyme Activity Comprises the Following Steps:
(§4) A. preheating: putting 1 mL of a 1% pullulan solution of which the pH value is 6.0 and 0.1 mL of a buffer solution of which the pH value is 6.0 in a centrifuge tube, and performing thermal insulation for 10 min on a water bath of 40° C.;
(§5) B. reaction: adding 0.1 mL (10 U) of an enzyme solution, performing shaking and mixing uniformly, performing accurate timing for 30 min, adding 1.5 mL of DNS for stopping reaction, performing treatment in a boiling water bath for 10 min, and performing instant cooling; and
(§6) C. measurement: measuring the light absorption value under the condition of 540 nm, and calculating the activity.
(§7) Reduction of the Inhibitory Effect of Enzyme Activity Characterization:
(§8) A. preheating: putting 1 mL of the 1% pullulan solution of which the pH value is 6.0 and 0.1 mL of 10 mM cyclodextrin in the centrifuge tube, and performing thermal insulation for 10 min on the water bath of 40° C.;
B. reaction: adding 0.1 mL (10 U) of the enzyme solution, performing shaking and mixing uniformly, performing accurate timing for 30 min, adding 1.5 mL of DNS for stopping reaction, performing treatment in the boiling water bath for 10 min, and performing instant cooling; and […]

[2] = tested on: pullulanase of [Brevibacterium] halotolerans
Source text: as §1, §2, §3, §4, §5, §6, §7, §8
(§9) B. reaction: adding 0.1 mL (10 U) of the enzyme solution, performing shaking and mixing uniformly, performing accurate timing for 30 min, adding 1.5 mL of DNS for stopping reaction, performing treatment in the boiling water bath for 10 min, and performing instant cooling; and
(§10) On the basis, the phenylalanine at the position 481 of the Geobacillus stearothermophilus, the phenylalanine at the position 478 of the [Brevibacterium] halotolerans and the phenylalanine at the position 476 of the […] are mutated, obtained mutants and the mutation effects are shown in the table below. The key amino acid site is applicable to the pullulanase from different sources.

[3] = tested on: pullulanase of Bacillus halotolerans
Source text: as §1, §2, §3, §4, §5, §6, §7, §8, §9, §10

[4] = tested on: pullulanase of Geobacillus stearothermophilus
Source text: as §1, §2, §3, §4, §5, §6, §7, §8, §9, §10

B1: Mutant F476C: Bacillus subtilis str. 168 pullulanase mutated at position 476 (F to C) (protein, UniProt C0SPA0 1-718, looked up, variant F476C)
Pullulanase: MVSIRRSFEAYVDDMNIITVLIPAEQKEIMTPPFRLETEITDFPLAVREEYSLEAKYKYVCVSDHPVTFGKIHCVRASSGHKTDLQIGAVIRTAAFDDEFYYDGELGAVYTADHTVFKVWAPAATSAAVKLSHPNKSGRTFQMTRLEKGVYAVTVTGDLHGYEYLFCICNNSEWMETVDQYAKAVTVNGEKGVVLRPDQMKWTAPLKPFSHPVDAVIYETHLRDFSIHENSGMINKGKYLALTETDTQTANGSSSGLAYVKELGVTHVELLPVNDFAGVDEEKPLDAYNWGYNPLHFFAPEGSYASNPHDPQTRKTELKQMINTLHQHGLRVILDVVFNHVYKRENSPFEKTVPGYFFRHDECGMPSNGTGVGNDIASERRMARKFIADCVVYWLEEYNVDGFRFDLLGILDIDTVLYMKEKATKAKPGILLFGEGWDLATPLPHEQKAALANAPRMPGIGFFNDMFRDAVKGNTCHLKATGFALGNGESAQAVMHGIAGSSGWKALAPIVPEPSQSINYVESHDNHTFWDKMSFALPQENDSRKRSRQRLAAAIILLAQGVPFIHSGQEFFRTKQGVENSYQSSDSINQLDWDRRETFKEDVHYIRRLISLRKAHPAFRLRSAADIQRHLECLTLKEHLIAYRLYDLDEVDEWKDIIVIHHASPDSVEWRLPNDIPYRLLCDPSGFQEDPTEIKKTVAVNGIGTVILYLASDLKSFA
[1]
  Reduction rate of specific enzyme activity in existence of α-CD: 4.3%
  Reduction rate of specific enzyme activity in existence of β-CD: 17.2%
  Reduction rate of specific enzyme activity in existence of γ-CD: 5.6%

B2: Mutant F476A: Bacillus subtilis str. 168 pullulanase mutated at position 476 (F to A) (protein, UniProt C0SPA0 1-718, looked up, variant F476A)
Pullulanase: B1 Pullulanase with C476A
[1]
  Reduction rate of specific enzyme activity in existence of α-CD: 3.5%
  Reduction rate of specific enzyme activity in existence of β-CD: 5.6%
  Reduction rate of specific enzyme activity in existence of γ-CD: 5.8%

B3: [Brevibacterium] halotolerans Wild enzyme: wild pullulanase of [Brevibacterium] halotolerans (OEC77647.1, SEQ ID NO: 23) (protein)
chain: MVSIQRSFEAYADEMNIITVLIPADQKDTFTPPFQLETDTAEIPLTVSQEWQIEGKCKYVCVAEQPVTFGKTHHVKASGGGKTDLQIGAVVRTDAFDAAFYYDGELGAVYTSDYTEFKVWAPAATSAAVKLSHPEKSGHTLQMTRMENGVYAVTVAGDLHGYEYVYRICNNLEWTETVDPYAKAVTVNGEKGVVLRPDQANSAPSLAPFSDPVDAIIYEMHIRDFSIHENSGMKNKGKYSALAETDTKTKNGSSTGLSYLKELGVTHIELLPLNDYAGVDEENPLAAYNWGYNPLHFFAPEGSYASNPHDPQTRNTEVKQMIHTLQQHGLRVILDVVYNHVYQREHSPFEKTVPGYFFRHDQFGMPSNGTGVGNDIASERRMARKFITDCVMYWLKEYDVDGFRFDLLGILDIETVLHMKEKASEVKPGILLFGEGWDLATPLPPEQKATLANASKMPGVGFFNDSFRDAVKGNTFHIAAAGFALGNGEQTETVMRGIAGSSGWKETAPLVSAPSQSINYVESHDNHTFWDKMSLALPQESESRKRSRQKLASAIILLAQGVPFIHSGQEFFRTKQGVENSYQSSDSINQLDWSRRETFKQDVDYVRRLISLRKAHPAFRLTSSADIQRCLECLALKEHLIVYRLFNLGAIDEWEEIIVIHHASPDSVTWQLPKDKAYRLLCDTDGFRADPGEIKKAVAVNGIGTVILF
modifications: bacterial
[2]; inhibitor α-CD
  Reduction rate of specific enzyme activity in existence of α-CD: 15.3%
[2]; inhibitor β-CD
  Reduction rate of specific enzyme activity in existence of β-CD: 47.2%
[2]; inhibitor γ-CD
  Reduction rate of specific enzyme activity in existence of γ-CD: 6.1%

B4: Bacillus halotolerans Wild enzyme: wild pullulanase of Bacillus halotolerans (WP_106020274.1, SEQ ID NO: 26) (protein)
chain: MVCIQRSFEAYADEMNIITVLIPADQKDTFTPPFQLETDTAEIPLTVSQEWQIEGKYKYVCVAEQPVAFGKTHHVKASGGGKTDLQIGAVVRTDAFDAAFYYDGELGAVYASDYTEFKVWAPAATSAAVKLSHPEKSGYTLQMTRMENGVYAVTVAGDLHGYEYVYRICNNLEWTETVDPYAKAVTVNGEKGVVLRPDQANSAPSFTPFSAPVDAIIYEMHIRDFSIHENSGTKNKGKYAALAETDTKTKNGSSTGLSYLKELGVTHIELLPLNDYAGVDEENPLAAYNWGYNPLHFFAPEGSYSSNPHDPQTRNTEVKQMIHTLHQHGLRVILDVVYNHVYQREHSPFEKTVPGYFFRHDQFGMPSNGTGVGNDIASERRMARKFITDCVMYWLKEYDVDGFRFDLLGILDIETVLHMKEKASEVKSGILLFGEGWDLATPLPPEQKATLANASKMPGVGFFNDSFRDAVKGNTFHIAAAGFALGNGEKTETVMHGIAGSSGWKETAPLVSAPSQSINYVESHDNHTFWDKMSLALPQESESRKRSRQKLASAIILLAQGVPFIHSGQEFFRTKQGVENSYQSSDSINQLDWSRRETFKQDVDYVRRLISLRKAHPAFRLTSSADIQRCLECLALKEHLIVYRLFNLGAIDEWEEIIVIHHASPDSVTWQLPKDKAYRLLCDTDGFRADHGEIKKAVAVNGIGTVILYLARDLTSFA
modifications: bacterial
[3]; inhibitor α-CD
  Reduction rate of specific enzyme activity in existence of α-CD: 17.2%
[3]; inhibitor β-CD
  Reduction rate of specific enzyme activity in existence of β-CD: 35.9%
[3]; inhibitor γ-CD
  Reduction rate of specific enzyme activity in existence of γ-CD: 6.7%

B5: Geobacillus stearothermophilus Wild enzyme: wild pullulanase of Geobacillus stearothermophilus (KZE96788.1, SEQ ID NO: 20) (protein)
chain: MLHISRTFAAYLDEIDQITVIVPKARCLDNMEPFVMTAPSGEDIPLVVQQKEDLGDAVKYVCRFSVPFQIGETHWIRARSGEESDVQIGAVVRTAAFDDQFFYDGKLGVEYAKEQTIFRVWAPTATAVSVKLVHPDHGDVRYVPLVRGERGVWSVAVSGDWERARYMYVACINRVWREAVDPYATAVSVNGEHGVIVDWEKTKLAKPAPPLPPCPSPTDAVIYELSIRDFTSHPDSGAVWKGKYLGLTEEHTRGPNGTVTGLSYLKELGVTHVQLMPFADFAGVDERDPQAAYNWGYNPLHLYAPEGSYATDPHDPYARIVELKQAIRALQENGLRVVMDAVYNHVYDREQSPLENLVPGYYFRYDAYGRPANGTGVGNDIASERRMARRWIVDSVVFWAKEYGINGFRFDLMGVHDIETMKSVRDALDAIDPSILVYGEGWDLPTPLAPEQKATMANAKRLPRLAYFNDRFRDAVKGSTFYLPDRGFALGDSAGREQVKTAIAGSLQAFGGLFCHPLQSINYVECHDNHTFWDKMEAANGHEPEWLRRKRQKLATAIVLLAQGIPFLHSGQEFYRTKGGDENSYRSPDAVNRLDWERKSRYEDDVRYIQGLIAIRRAHGAFRLATEVDVQRHLTFLEPIPPSVIAYWLRDVALYGLWTDIVVIHHNEETGVVIALPDDGEWHVVCDGERSGTVPLRQVRRFLDADGIGTWVLVKTGAAADVENGK
modifications: bacterial
[4]; inhibitor α-CD
  Reduction rate of specific enzyme activity in existence of α-CD: 16.9%
[4]; inhibitor β-CD
  Reduction rate of specific enzyme activity in existence of β-CD: 51.2%
[4]; inhibitor γ-CD
  Reduction rate of specific enzyme activity in existence of γ-CD: 7.7%
